For one data set, the target named is T1, Abz-LPETGK(Dnp)-CONH2.
T1 chain: LPETGK

The next data set has as its target T2, Abz-LAETGK(Dnp)-CONH2.
T2 chain: LAETGK

The target of another data set is T3, Gly-Gly-Gly-COOH.
T3 chain: GGG

The target of the next data set is T4, Abz-LPESGK(Dnp)-CONH2.
T4 chain: LPESGK

Changes are numbered by the printed parent chain. Numbers in names are those of the source.

B1: eSrtA(2A-9) H104A (protein)
chain: QAKPQIPKDKSKVAGYIEIPDADIKEPVYPGPATREQLNRGVCFADENESLDDQNISIAGHTFIDRPNYQFTNLKAAKPGSMVYFKVGNETRIYKMTSIRKVHPNAVEVLDEQEGKDKQLTLVTCDDYNEETGVWESRKIFVATEVK
For B1, in the data set with Abz-LPETGK(Dnp)-CONH2, the “preference for LPETG over LAETG (kcat/Km)” value is listed as “resulting in a 60-fold preference for LPETG (SEQ ID NO: 4) over LAETG (SEQ ID NO: 5)”.

B2: eSrtA(2A-9) V182I (protein)
chain: B1 chain with A45H, V123I
Take B2: the “preference for LAETG over LPETG (kcat/Km)” value with Abz-LAETGK(Dnp)-CONH2 is “lowers the activity level for LAETG (SEQ ID NO: 5), but maintains an 85-fold preference for LAETG (SEQ ID NO: 5) over LPETG (SEQ ID NO: 4)”.

B3: wild-type S. aureus sortase A (protein)
chain: QAKPQIPKDKSKVAGYIEIPDADIKEPVYPGPATPEQLNRGVSFAEENESLDDQNISIAGHTFIDRPNYQFTNLKAAKKGSMVYFKVGNETRKYKMTSIRDVKPTDVEVLDEQKGKDKQLTLITCDDYNEKTGVWEKRKIFVATEVK
For B3, in the data set with Abz-LPETGK(Dnp)-CONH2, the Km was found to be 7600 µM; the Km, LxExG was 5180 µM; the kcat/Km worked out at 200 M⁻¹ s⁻¹; the kcat/Km (Hz/M) turned out to be 236 Hz/M. Also, in the data set with Gly-Gly-Gly-COOH, the Km, GGG (uM); with LPETG peptide amounted to 291 µM and the Km,GGG (µM); listed substrate LPETG was determined as 211 µM.

B4: eSrtA(4S-3.5) (protein)
chain: B3 chain with P35R, A45T, A59T, D101N, D106A, I123V, K131E, K137T
For B4, in the data set with Abz-LPESGK(Dnp)-CONH2, the Avg KM was 38800 µM; the Avg kcat/KM amounted to 193; the Km, LxExG was 7310 µM; the Specificity, LPESG over LPETG worked out at 1.45 fold. For the same protein, the kcat/Km (Hz/M) with Abz-LPESGK(Dnp)-CONH2 was 154 Hz/M. Besides, in the data set with Abz-LPETGK(Dnp)-CONH2, the Avg KM came to 39300 µM and the Avg kcat/KM came out at 133.

B5: eSrtA(2A-4) (protein)
chain: B3 chain with P35R, A45H, D101N, K103R, D106A, V109I, I123V, K131E, K137T
In the case of B5, in the data set with Abz-LAETGK(Dnp)-CONH2, the Avg KM was determined as 3720 µM; the Avg kcat/KM came to 534; the Km, LxExG turned out to be 3250 µM; the Specificity (relative catalytic efficiency, fold), LAETG over LPETG turned out to be 55.1 fold. Besides, in the data set with Abz-LAETGK(Dnp)-CONH2, the “increase in kcat/Km, LAETG substrate against LPETG substrate” value is listed as “from ˜40-fold (2Ar4) to ˜125-fold (2Ar5) increase in kcat/Km”; the kcat/Km (Hz/M) came out at 585 Hz/M; the specificity (relative cat. Efficiency, fold), LAETG over LPETG stood at 73 fold. For the same protein, in the data set with Abz-LPETGK(Dnp)-CONH2, the Avg KM turned out to be 5180 µM; the Avg kcat/KM turned out to be 9.69; the Km, LxExG was found to be 11700 µM; the kcat/Km (Hz/M) is 8.01 Hz/M.

B6: eSrtA(4S-4) (protein)
chain: B3 chain with P35R, A45V, A59T, F63S, D101N, D106A, I123V, K131E, K137T
As to B6, in the data set with Abz-LPESGK(Dnp)-CONH2, the Avg KM came to 1560 µM; the Avg kcat/KM came out at 487; the Km, LxExG stood at 1410 µM; the Specificity, LPESG over LPETG came out at 2.22 fold. Besides, in the data set with Abz-LPESGK(Dnp)-CONH2, the kcat/Km (Hz/M) turned out to be 517 Hz/M and the specificity (relative cat. Efficiency, fold), LPESG over LPETG is 1.82 fold. Further, in the data set with Abz-LPETGK(Dnp)-CONH2, the Avg KM stood at 491 µM; the Avg kcat/KM stood at 219; the Km, LxExG was 339 µM; the kcat/Km (Hz/M) is 283 Hz/M.

B7: eSrtA(4S-5) (protein)
chain: QAKPQIPKDKSKVAGYIEIPDADIKEPVYPGPATREQLDRGVSFVEENESLDDQNISITGHTAIDRPNYQFTNLRAAKKGSMVYFKVGNETRKYKMTSIRNVKPTAVEVLDEQKGKDKQLTLVTCDDYNEETGVWETRKIFVATEVK
On to B7, for which, in the data set with Abz-LPESGK(Dnp)-CONH2, the Avg KM worked out at 76 µM; the Avg kcat/KM stood at 5130; the Km, LxExG was found to be 76 µM; the Specificity, LPESG over LPETG stood at 9.67 fold. Moreover, in the data set with Abz-LPESGK(Dnp)-CONH2, the “increase in kcat/Km, LPESG substrate against LPETG substrate” value is “from ˜2-fold (4Sr5) to ˜5-fold (4Sr6a) increase in kcat/Km”; the “increased affinity for the LPESG substrate as compared to the LPETG substrate” value was “from ˜2-fold (4Sr6b) to ˜8-fold (4Sr5)”; the kcat/Km (Hz/M) was 5130 Hz/M; the specificity (relative cat. Efficiency, fold), LPESG over LPETG came out at 10 fold. For the same protein, in the data set with Abz-LPETGK(Dnp)-CONH2, the Avg KM turned out to be 11.7 µM; the Avg kcat/KM amounted to 530; the Km, LxExG stood at 12.2 µM; the kcat/Km (Hz/M) amounted to 513 Hz/M. Besides, the Km,GGG (uM); with LPESG peptide with Gly-Gly-Gly-COOH is 26700 µM.

B8: eSrtA(4S-6) (protein)
chain: B7 chain with T59S, R75G, E130V
On to B8, for which, in the data set with Abz-LPESGK(Dnp)-CONH2, the Avg KM stood at 125 µM; the Avg kcat/KM came out at 7530; the Km, LxExG came to 102 µM; the Specificity, LPESG over LPETG is 8.09 fold. For the same protein, in the data set with Abz-LPESGK(Dnp)-CONH2, the “increase in kcat/Km, LPESG substrate against LPETG substrate” value was “from ˜2-fold (4Sr5) to ˜5-fold (4Sr6a) increase in kcat/Km”; the kcat/Km (Hz/M) is 9390 Hz/M; the specificity (relative cat. Efficiency, fold), LPESG over LPETG was determined as 11 fold. In the data set with Abz-LPETGK(Dnp)-CONH2, the Avg KM is 1040 µM; the Avg kcat/KM amounted to 930; the Km, LxExG was 1290 µM; the kcat/Km (Hz/M) is 854 Hz/M. In the data set with Gly-Gly-Gly-COOH, the Avg KM (uM) for GGG; with LPESG (4S) peptide is 13100 µM, the Avg kcat/KM for GGG; with LPESG (4S) peptide is 153 and the Km,GGG (uM); with LPESG peptide was 4950 µM.

B9: 4S.6B (protein)
chain: B7 chain with T59S, R75P, E130P
As to B9, in the data set with Abz-LPESGK(Dnp)-CONH2, the Km, LxExG was determined as 312 µM; the “increased affinity for the LPESG substrate as compared to the LPETG substrate” value was “from ˜2-fold (4Sr6b) to ˜8-fold (4Sr5)”; the kcat/Km (Hz/M) amounted to 4140 Hz/M; the specificity (relative cat. Efficiency, fold), LPESG over LPETG was 0.91 fold. In the data set with Abz-LPETGK(Dnp)-CONH2, the Km, LxExG turned out to be 238 µM and the kcat/Km (Hz/M) was determined as 4550 Hz/M. For the same protein, in the data set with Gly-Gly-Gly-COOH, the Km,GGG (uM); with LPESG peptide came out at 15700 µM.

B10: eSrtA(4S-9) V104A (protein)
chain: B7 chain with S43C, V45A, F85L, E130F
For B10, the “lowering of specificity for LPESG over LPETG against eSrtA(4S-9)” value in the data set with Abz-LPESGK(Dnp)-CONH2 is “lowering specificity for LPESG (SEQ ID NO: 3) over LPETG (SEQ ID NO: 4) by 14-fold for the V104A mutant”.

B11: eSrtA(4S-9) T118A (protein)
chain: B7 chain with S43C, T59A, F85L, E130F
For B11, the “lowering of specificity for LPESG over LPETG against eSrtA(4S-9)” value with Abz-LPESGK(Dnp)-CONH2 is “by 75-fold for the T118A mutant”.

B12: eSrtA(4S-9) V182I (protein)
chain: B7 chain with S43C, F85L, V123I, E130F
As to B12, in the data set with Abz-LPESGK(Dnp)-CONH2, the “activity and selectivity on LPESG and LPETG (kcat/Km)” value is “Reversion of V182 in eSrtA(4S-9) preserved selectivity but decreased overall activity”.

B13: eSrtA(2A-3) (protein)
chain: QAKPQIPKDKSKVAGYIEIPDADIREPVYPGPATREQLNRGVSFAEENESLDDQNISIAGHTSIGRPNYQFTNLRAAKKGSMVYFEVGNETRKYKMTSIRNVRPTAVEILDEQKGKDRQLTLFTCDDYNEETGVWETRKIFVATEVK
In the data set with Abz-LAETGK(Dnp)-CONH2, B13 registered an Avg KM of 1620 µM and an Avg kcat/KM of 881. Moreover, in the data set with Abz-LPETGK(Dnp)-CONH2, the Avg KM was 2100 µM; the Avg kcat/KM amounted to 1270; the Specificity (relative catalytic efficiency, fold), LPETG over LAETG came out at 1.44 fold.

B14: eSrtA(4S-3) (protein)
chain: B7 chain with D39S, V45T, A63S, D65G, K114E, K118E
In the data set with Abz-LPESGK(Dnp)-CONH2, B14 came in with an Avg KM of 3330 µM; an Avg kcat/KM of 763; a Specificity, LPESG over LPETG of 245 fold. In the data set with Abz-LPETGK(Dnp)-CONH2, this protein had an Avg KM of 3390 µM and an Avg kcat/KM of 3.12.

As a reminder, the Km is the substrate concentration at which the rate is half of its maximum. The kcat/Km is the turnover number divided by the Michaelis constant.
